Measurements reported in US12139520B2 (priority 2020, dated 2024).
Numbered stars: 1 amine (or outer) side, 2 acyl side, 3 side chain; on linkers, the order of the positions; unused ones are H or OH. Bridge positions count the residues as written; N and C are the ends. Square brackets hold non-standard residues; d marks the D form. Side chains are listed from the residue outwards. Ends that are not written are not given here. * marks the point of attachment. C20 diacid = O=C(O)CCCCCCCCCCCCCCCCCCC(=O)*; γGlu = O=C(O)[C@H](CCC(=O)[*:2])N[*:1]; Hyp = O=C(O)[C@@H]1C[C@@H](O)CN1; Trx = NC[C@H]1CC[C@H](C(=O)O)CC1; AEEA = NCCOCCOCC(=O)O

How the values were obtained:
hAMY3R = target: T1, hAMY3R (human, UniProt P30988); test: cell-based or functional assay
T1 sequence 1: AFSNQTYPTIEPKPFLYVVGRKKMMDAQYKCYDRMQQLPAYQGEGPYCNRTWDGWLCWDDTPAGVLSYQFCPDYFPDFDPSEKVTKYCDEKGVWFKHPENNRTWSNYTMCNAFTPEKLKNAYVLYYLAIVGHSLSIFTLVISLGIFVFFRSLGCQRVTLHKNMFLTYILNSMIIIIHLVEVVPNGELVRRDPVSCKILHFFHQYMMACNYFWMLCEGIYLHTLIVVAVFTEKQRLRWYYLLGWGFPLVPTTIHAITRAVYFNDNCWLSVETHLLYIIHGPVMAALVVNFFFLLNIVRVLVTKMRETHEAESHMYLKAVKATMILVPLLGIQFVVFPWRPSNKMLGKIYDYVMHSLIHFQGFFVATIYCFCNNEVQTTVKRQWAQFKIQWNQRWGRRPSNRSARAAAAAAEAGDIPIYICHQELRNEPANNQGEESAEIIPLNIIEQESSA
T1 sequence 2: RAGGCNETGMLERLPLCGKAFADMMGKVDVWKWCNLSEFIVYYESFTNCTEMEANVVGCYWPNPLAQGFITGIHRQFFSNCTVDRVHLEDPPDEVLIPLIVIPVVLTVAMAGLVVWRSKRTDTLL

hAM1R = hAM1R (human, UniProt Q16602); test: cell-based or functional assay

Binder	hAMY3R EC50 (cAMP) (hAMY3R) [nM]	hAM1R EC50 (cAMP) (hAM1R) [nM]
{C20 diacid-γGlu}-KCNTATCTVQRLANQIYQFTDKDKDNVAPPTNVGSNG[Hyp]-NH2 (disulfide 2-7 (inferred); ends not checked) [SEQ ID NO: 21]	0.008	> 5000
GCRTGTCTVQRLAHQIYQFTDKFKDNVAPRSKISPQK[Hyp]-NH2 (disulfide 2-7 (inferred); ends not checked) [SEQ ID NO: 206]	0.13	> 5000
KCNTATCATQRLANFLVHSSNNFGAILPSTKIGSNGY [SEQ ID NO: 207]	0.131	> 5000
{C20 diacid-γGlu}-GCRFGTCTVQRLAHFLYQFTDKDKDNVAPRTNVGSNTY-NH2 (disulfide 2-7 (inferred); ends not checked) [SEQ ID NO: 208]	0.133	242
GCRTGTCTVQRLAHQIYQFTDKDKDNVAPRTKVSPQGY [SEQ ID NO: 209]	0.136	1020
KCNTATCTVQRLAHQAYQFTDKDKDNVAPPTNVGSNG[Hyp]-NH2 (disulfide 2-7 (inferred); ends not checked) [SEQ ID NO: 210]	0.137	> 5000
GCRTGTCTVQRLAHQIYQFTDKFKDNVAPRSKISPQF[Hyp]-NH2 (disulfide 2-7 (inferred); ends not checked) [SEQ ID NO: 211]	0.151	2760
GCRFGTCTVQRLAHQIYQFTDKFKDNVAPRSKISPQT[Hyp]-NH2 (disulfide 2-7 (inferred); ends not checked) [SEQ ID NO: 212]	0.153	> 5000
GCRTGTCTVQRLAHQIWQFTDKFKDNVAPRSKISPQT[Hyp]-NH2 (disulfide 2-7 (inferred); ends not checked) [SEQ ID NO: 213]	0.153	> 5000
GCRTGTCTVQRLAHQIYQFTDKDKDNVAPRTNISPQG[Hyp]-NH2 (disulfide 2-7 (inferred); ends not checked) [SEQ ID NO: 214]	0.157	2980
GCRTGTCTVQRLAHQIYQFTDKFKDNVAPRSKISPQTM [SEQ ID NO: 215]	0.161	> 5000
{C20 diacid-γGlu}-KCNTATCTVQRLAHQITQFTDKDKDNVAPPTNVGSNG[Hyp]-NH2 (disulfide 2-7 (inferred); ends not checked) [SEQ ID NO: 22]	0.008	> 5000
GCRTGTCTVQRLAHQIYQFTDKDKDNVAPRTKVSPQG[Hyp]-NH2 (disulfide 2-7 (inferred); ends not checked) [SEQ ID NO: 216]	0.164	2980
GCRFGTCTVQRLAHQLYQFTDKDKDNVAPRSKISPQT[Hyp]-NH2 (disulfide 2-7 (inferred); ends not checked) [SEQ ID NO: 217]	0.167	> 5000
GCRTGTCTVQRLAHQIYQFTDKFKDNVAPRSKISPQA[Hyp]-NH2 (disulfide 2-7 (inferred); ends not checked) [SEQ ID NO: 218]	0.169	> 5000
GCRTGTCTVQRLAHQIYQFTNKDKDNVAPRSKISPQH[Hyp]-NH2 (disulfide 2-7 (inferred); ends not checked) [SEQ ID NO: 219]	0.171	4250
GCRTGTCTVQRLAHQIYQFTNKDKDNVAPRSKISPQW[Hyp]-NH2 (disulfide 2-7 (inferred); ends not checked) [SEQ ID NO: 220]	0.182	> 5000
{C20 diacid-Trx-γGlu-AEEA-AEEA}-K([AEEA-AEEA-γGlu-Trx-C20 diacid])CNTATCTVQRLAEQIYQFTDKDKDNVAPPTNVGSNG[Hyp] (disulfide 2-7 (inferred); ends not checked) [SEQ ID NO: 221]	0.184	> 5000
KCNTATCTVQRLAHQIYQFADKDKDNVAPPTNVGSNG[Hyp]-NH2 (disulfide 2-7 (inferred); ends not checked) [SEQ ID NO: 23]	0.008	> 5000

Next, values leading:

hAMY3R EC50 (cAMP) (hAMY3R) [nM]	hAM1R EC50 (cAMP) (hAM1R) [nM]	Binder
0.184	> 5000	GCRMGTCTVQRLAHQIYQFTDKDKDNVAPSSKISPQT[Hyp]-NH2 (disulfide 2-7 (inferred); ends not checked) [SEQ ID NO: 222]
0.186	47.7	{C20 diacid-γGlu}-GCRFGTCTVQRLAHFLYQFTDKDKDNVAPRTKVGSNGY-NH2 (disulfide 2-7 (inferred); ends not checked) [SEQ ID NO: 223]
0.186	2980	GCRTGTCTVQRLAHQIYQFTDKDKDNVAPRSNVSPQG[Hyp]-NH2 (disulfide 2-7 (inferred); ends not checked) [SEQ ID NO: 224]
0.186	> 5000	{C20 diacid-γGlu}-KCNTLTCTVQRLAHQIYQFTDKDKDNVAPPTNVGSNG[Hyp]-NH2 (disulfide 2-7 (inferred); ends not checked) [SEQ ID NO: 225]
0.186	> 5000	GCRTGTCTVQRLAHQIYQFTNKDKDNVAPRSKISPQTW [SEQ ID NO: 226]
0.187	4570	GCRTGTCTVQRLAHQIHQFTNKDKDNVAPRSKISPQT[Hyp]-NH2 (disulfide 2-7 (inferred); ends not checked) [SEQ ID NO: 227]
0.205	> 5000	GCRTGTCTVQRLAHQIHQFTDKDKDNVAPRSKISPQT[Hyp]-NH2 (disulfide 2-7 (inferred); ends not checked) [SEQ ID NO: 228]
0.207	2980	GCRFGTCTVQRLAHQIYQFTDKDKDNVAPRSNIGPQG[Hyp]-NH2 (disulfide 2-7 (inferred); ends not checked) [SEQ ID NO: 229]
0.208	> 5000	GCRTGTCTVQRLAHQIYQFTDKFKDNVAPRSKISPQTY [SEQ ID NO: 230]
0.209	> 5000	{C20 diacid-γGlu}-KCNTYTCTVQRLAHQIYQFTDKDKDNVAPPTNVGSNG[Hyp]-NH2 (disulfide 2-7 (inferred); ends not checked) [SEQ ID NO: 231]
0.213	> 5000	GCRTGTCTVQRLAHQIYQFTNKDKDNVAPRSKISPQQ[Hyp]-NH2 (disulfide 2-7 (inferred); ends not checked) [SEQ ID NO: 232]
0.22	> 5000	KCNTATCTVQRLAEQIYQFTDKDKDNVAPPTNVGSNG[Hyp]-NH2 (disulfide 2-7 (inferred); not fully specified (N-terminus); ends not checked; also: N-terminal Lys carries two C20DA-OEG-γGlu-OEG arms ((...)2-K)) [SEQ ID NO: 233]
0.227	> 5000	KCNTATCATQRLANFLVQFTDKDKDNVAPRSKISPQGY [SEQ ID NO: 234]
0.233	1420	GCRTGTCTVQRLAHQIYQFTDKFKDNVAPRSKISPQTP [SEQ ID NO: 235]
